Measured values from PMC9381478 (Cellular and Molecular Life Sciences: CMLS, 2022).

T1: Spd1 (full-length) (S. pombe, UniProt Q10585 1-124)
T1 construct: Spd1 of S. pombe; also called 15N-Spd1
T1 sequence (looked up): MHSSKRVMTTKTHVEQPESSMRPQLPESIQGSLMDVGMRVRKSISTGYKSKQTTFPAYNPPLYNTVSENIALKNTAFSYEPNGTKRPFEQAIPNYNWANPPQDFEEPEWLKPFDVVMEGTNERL

B1: S. pombe ubiquitin with an N-terminal 6xhistidine-tag, TEV-cleavage site and an N-terminal free cysteine (natural protein)
chain: not shown
notes: ubiquitin of S. pombe, the cut product of its precursors; An added free cysteine stands N-terminal of ubiquitin together with the tag and the TEV linker; Used 15N-labelled or unlabelled; also called 15N-labeled ubiquitin; 15N-ubiquitin; source: E. coli BL21(DE3), purified (nickel Sepharose, SEC); not shown: His6, N-terminal, kept; TEV cleavage site, N-terminal, kept

Assays:
[1] = biological target: B1; test: NMR titration; 100 µM 15N-ubiquitin, unlabelled peptide or protein added or titrated (peptides to 1 mM, WT Dss1 peptide to 5 mM); 20 mM NaH2PO4, 150 mM NaCl, 5 mM TCEP, pH 7.5; CSPs of 1H-15N-HSQC, global fit to a one-site model; details: both partners purified
Spd1 (full-length) = biological target: T1, Spd1 (full-length); test: NMR titration; 30 µM 15N-Spd1 with 560 µM ubiquitin added; CSPs mapped on Spd1; details: both partners purified

Row | Kd [1] | binding result (Spd1 (full-length)) | Binder
1 | 1200 ± 90 µM | – | Ac-DDTLWWENNWWDDED-NH2 (UBS1 of S. pombe Dss1 (O14140) with two extra tryptophans; also called double tryptophan; Pep42 (as soluble peptide); source: synthetic peptide, bought: TAG Copenhagen) [PepDW]
2 | 380 ± 40 µM | – | Dss1 N71C (mentioned as "Dss1 WT") (natural protein, S. pombe, UniProt O14140 1-71, looked up, Dss1 (deleted in split hand/split foot 1) of S. pombe; Used unlabelled, 15N- or 13C,15N-labelled; also called full-length Dss1; WT Dss1; source: E. coli BL21(DE3), purified (nickel Sepharose, ULP1 cleavage, reversed phase); not shown: His6-SUMO, N-terminal, cleaved) MSRAALPSLENLEDDDEFEDFATENWPMKDTELDTGDDTLWENNWDDEDIGDDDFSVQLQAELKKKGVAAC
3 | 600 ± 30 µM | – | Ac-DDTLWWEDDWWDDED-NH2 (PepDW with the two asparagines of the core substituted with aspartates; also called DWD peptide; source: synthetic peptide, bought: TAG Copenhagen) [PepDWD]
4 | – | binds | B1
5 | 3000 ± 200 µM | – | Ac-GDDTLWENNWDDEDI-NH2 (also called WT Dss1 peptide; UBS1 from Dss1; source: synthetic peptide, bought: TAG Copenhagen) [wild-type Dss1 peptide]
6 | 1300 ± 120 µM | – | Ac-DLWENNWDLWENNWD-NH2 (core motif WENNW of S. pombe Dss1 (O14140) repeated; also called double motif; Pep43 (as soluble peptide); source: synthetic peptide, bought: TAG Copenhagen) [PepDM]
7 | 480 ± 40 µM | – | Ac-DLWEDDWDLWEDDWD-NH2 (PepDM with the asparagines of the core substituted with aspartates; also called DMD peptide; source: synthetic peptide, bought: TAG Copenhagen) [PepDMD]
